Patent publication EP4717710A1 (UIF (University Industry Foundation), Yonsei University, dated 2026)

T1: IL-4R (recombinant protein) (human, UniProt P24394 26-232, biotinylated (Acro Biosystems ILR-H82E9) in the ELISA)
T1 construct: Bought recombinant IL-4R; also called IL-4 receptor; IL-4R molecule
T1 sequence (looked up): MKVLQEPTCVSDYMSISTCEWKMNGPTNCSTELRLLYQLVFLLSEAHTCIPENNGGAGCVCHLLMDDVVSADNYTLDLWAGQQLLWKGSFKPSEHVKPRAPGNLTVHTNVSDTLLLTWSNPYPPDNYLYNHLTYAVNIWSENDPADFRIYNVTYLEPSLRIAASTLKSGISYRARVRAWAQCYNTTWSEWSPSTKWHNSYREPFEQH

T2: IL-4R on cells (human, UniProt P24394 26-825)
T2 sequence (looked up): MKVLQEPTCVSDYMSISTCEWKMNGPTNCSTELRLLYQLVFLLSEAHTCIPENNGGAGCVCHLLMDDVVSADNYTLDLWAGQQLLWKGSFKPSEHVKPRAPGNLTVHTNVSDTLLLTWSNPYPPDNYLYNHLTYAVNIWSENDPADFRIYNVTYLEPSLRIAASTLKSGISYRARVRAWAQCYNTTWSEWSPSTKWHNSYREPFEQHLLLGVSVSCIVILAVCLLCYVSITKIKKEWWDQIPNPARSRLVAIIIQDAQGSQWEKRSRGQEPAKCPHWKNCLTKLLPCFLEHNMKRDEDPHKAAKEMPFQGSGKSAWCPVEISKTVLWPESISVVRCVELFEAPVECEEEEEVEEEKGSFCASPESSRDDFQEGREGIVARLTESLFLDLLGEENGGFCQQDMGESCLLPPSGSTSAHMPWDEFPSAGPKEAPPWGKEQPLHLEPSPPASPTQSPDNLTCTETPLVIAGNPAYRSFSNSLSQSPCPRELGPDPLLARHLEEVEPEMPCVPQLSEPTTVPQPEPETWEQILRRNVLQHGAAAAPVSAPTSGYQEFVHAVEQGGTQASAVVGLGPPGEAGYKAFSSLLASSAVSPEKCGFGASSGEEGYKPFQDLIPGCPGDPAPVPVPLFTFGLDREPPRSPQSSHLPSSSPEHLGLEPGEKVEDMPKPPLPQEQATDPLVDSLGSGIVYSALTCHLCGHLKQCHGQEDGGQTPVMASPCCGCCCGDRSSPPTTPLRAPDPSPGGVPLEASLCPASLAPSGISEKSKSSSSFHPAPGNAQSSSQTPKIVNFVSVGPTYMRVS


Tests used:
[1] = target: T1, IL-4R (recombinant protein); assay: SPR
IL-4R on cells = target: T2, IL-4R on cells; assay: cell-based or functional assay
[2] = target: T1, IL-4R (recombinant protein); assay: ELISA, periplasmic extract captured by anti-c-Myc, 50 nM biotinylated IL-4R against MBP

Kd [1] [nM] | IL-4 signal blocking in STAT6-luciferase reporter cells (667 pM IL-4, 24 hours) (IL-4R on cells) | fold-change of OD values for IL-4R and MBP [2] [fold] | Binder
1420 | ~2 fold concentration relative to dupilumab | > 1.7 | H5 nanobody (VHH, Synthetic nanobody (sybody, convex scaffold) expressed from pSBinit in E. coli and purified on TALON resin; It was detected with anti-Myc, so the tested protein probably carries Myc/His tags; also called WT H5; H5 wild-type nanobody) VHH: QVQLVESGGGSVQAGGSLRLSCAASGSISSITYLGWFRQAPGKEREGVAALSTSSGTTYYADSVKGRFTVSLDNAKNTVYLQMNSLKPEDTALYYCAAADKGREYTLARAKYWYWGQGTQVTVSA
708 | – | – | H5 A110Y (VHH, also called H5 A110Y mutant) VHH: QVQLVESGGGSVQAGGSLRLSCAASGSISSITYLGWFRQAPGKEREGVAALSTSSGTTYYADSVKGRFTVSLDNAKNTVYLQMNSLKPEDTALYYCAAADKGREYTLARYKYWYWGQGTQVTVSA
1.06 | – | – | H5 E104R (VHH, also called H5 E104R mutant) VHH: QVQLVESGGGSVQAGGSLRLSCAASGSISSITYLGWFRQAPGKEREGVAALSTSSGTTYYADSVKGRFTVSLDNAKNTVYLQMNSLKPEDTALYYCAAADKGRRYTLARAKYWYWGQGTQVTVSA
